Assay results as given in paper PMC12207370, “Macrocyclic Peptide Probes for Immunomodulatory Protein CD59: Potent Modulators of Bacterial Toxin Activity and Antibody‐Dependent Cytotoxicity” (Angewandte Chemie (International Ed. in English), 2025).

Target: T1, biotinylated CD59 (Homo sapiens, UniProt P13987)
T1 construct: Recombinant soluble human CD59 with an additional C-terminal cysteine residue
T1 sequence (P13987 26-102 limits assumed): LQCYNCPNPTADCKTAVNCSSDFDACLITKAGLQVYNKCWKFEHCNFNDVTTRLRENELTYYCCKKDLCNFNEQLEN
Assay: mRNA-display cyclic peptide screen against CD59-biotin, NGS abundance after 6th selection round
Conditions: for Counts (raw counts for peptide sequence), Seq I: NGS sample Seq I; for Counts (raw counts for peptide sequence), Seq I / Counts (raw counts for peptide sequence), Seq II / Counts Seq I / Counts Seq II: sheet R6 (6th selection round); for Counts (raw counts for peptide sequence), Seq II: NGS sample Seq II; for Percentage of the pool, averaged across the two sequencing samples: average of Seq I and Seq II; for Percentage of the pool, averaged across the two sequencing samples / Percentage of the pool, Seq I / Percentage of the pool, Seq II / Percentage Seq I / Percentage Seq II / Percentage Average: sheet R6; for Percentage of the pool, Seq I: counts normalised by total counts of NGS sample Seq I; for Percentage of the pool, Seq II: counts normalised by total counts of NGS sample Seq II; for Percentage Seq I: counts normalised by total counts of sample Seq I; for Percentage Seq I / Percentage Seq II: percentage of the pool; for Percentage Seq II: counts normalised by total counts of sample Seq II; for Percentage Average: percentage of the pool averaged across the two sequencing samples; for Counts Seq I / Counts Seq II: raw NGS counts of peptide sequence; for Counts Seq I: sequencing sample Seq I; for Counts Seq II: sequencing sample Seq II
Outline: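 Peptide–mRNA fusions were made by in vitro translation with a customised PURE express kit. The kit lacked release factor 1 and methionine and was supplemented with […] initiator tRNA carrying N-chloroacetyl-d-tyrosine. Thioether macrocycles were formed, then enriched and amplified over iterative rounds on CD59-biotin immobilised on streptavidin beads. NGS read counts per sequence were recorded after the 6th selection round.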

Sequence	Counts (raw counts for peptide sequence), Seq I	Counts (raw counts for peptide sequence), Seq II	Percentage of the pool, averaged across the two sequencing samples [%]	Percentage of the pool, Seq I [%]	Percentage of the pool, Seq II [%]	Percentage Seq I [%]	Percentage Seq II [%]	Percentage Average [%]	Counts Seq I	Counts Seq II
FIRGNSTSVLC	36	5	0.010	0.008	0.012	–	–	–	–	–
SSWAQLPCKR	–	–	–	–	–	0.039	0.030	0.035	170	13
HCWVRGSRNYT	–	–	–	–	–	2.570	2.548	2.559	11242	1098
CFRSRAVSNGT	57	8	0.016	0.013	0.019	–	–	–	–	–
FIRGNSTSVPF	46	4	0.010	0.011	0.009	–	–	–	–	–
YARGDASHTIW	–	–	–	–	–	0.043	0.056	0.049	186	24
GYLNECHTLYTL	–	–	–	–	–	0.024	0.028	0.026	105	12
FVFGNRHFRTE	–	–	–	–	–	0.408	0.492	0.450	1785	212
CFSHRNPTDSI	32	6	0.011	0.007	0.014	–	–	–	–	–
CYGGRTFIYEWS	–	–	–	–	–	0.037	0.042	0.040	164	18
YLFGDRFSVRG	–	–	–	–	–	0.094	0.100	0.097	412	43
CFTLRLSQTSV	–	–	–	–	–	0.156	0.160	0.158	682	69
WILGSRWWTQT	–	–	–	–	–	0.032	0.030	0.031	139	13
CFYTRIDAFST	–	–	–	–	–	0.081	0.079	0.080	354	34
FKYGNSNFVRG	–	–	–	–	–	0.035	0.039	0.037	154	17
CFTLRVLDVSAV	100	5	0.017	0.023	0.012	–	–	–	–	–
LCYVKGSKNFT	–	–	–	–	–	0.088	0.095	0.092	385	41
CIRGTPTTV	56	3	0.010	0.013	0.007	–	–	–	–	–

Sequence	Counts (raw counts for peptide sequence), Seq I	Counts (raw counts for peptide sequence), Seq II	Percentage of the pool, averaged across the two sequencing samples [%]	Percentage of the pool, Seq I [%]	Percentage of the pool, Seq II [%]	Percentage Seq I [%]	Percentage Seq II [%]	Percentage Average [%]	Counts Seq I	Counts Seq II
HSYGSSQIAYH	74	8	0.018	0.017	0.019	–	–	–	–	–
FVAGNRDHTRG	–	–	–	–	–	0.023	0.016	0.020	102	7
IARGDRNHQFY	–	–	–	–	–	0.296	0.251	0.273	1296	108
YAFGSRDITYY	–	–	–	–	–	0.018	0.023	0.021	78	10
FVTGNRDYTRG	–	–	–	–	–	0.050	0.063	0.056	220	27
SCSEWRRGTRS	43	4	0.010	0.010	0.009	–	–	–	–	–
CFYQRTLGTTAS	–	–	–	–	–	0.018	0.021	0.019	79	9
FVRGNSTSVLF	–	–	–	–	–	0.020	0.019	0.019	88	8
RCWASGSRDWR	95	6	0.018	0.022	0.014	–	–	–	–	–
IARGGRHFSSG	46	4	0.010	0.011	0.009	–	–	–	–	–
CHGGRTFIYAWS	–	–	–	–	–	0.025	0.026	0.025	108	11
IIRGNRLTKYE	–	–	–	–	–	0.020	0.026	0.023	86	11
HVRGDAWTVLG	–	–	–	–	–	0.243	0.216	0.230	1065	93
CFTNRLDNSST	–	–	–	–	–	0.072	0.067	0.070	314	29
FIRGNSTSVLFLRQRQRQLGRGAE	–	–	–	–	–	0.060	0.072	0.066	264	31
KWGSSFFTLYRV	49	4	0.010	0.011	0.009	–	–	–	–	–
AVHGSSFYVWG	–	–	–	–	–	0.037	0.039	0.038	164	17
TLSTNRDLIRLLAAAAAAARTGGG	57	9	0.017	0.013	0.021	–	–	–	–	–
